Source: patent US20140296307, “POTENT ANALOGUES OF THE C-MYC INHIBITOR 10074-G5 WITH IMPROVED CELL PERMEABILITY” (University of Maryland, Baltimore, published 2014)

How the values were obtained:
[1] = molecular target: c-Myc bHLH-ZIP/Max(S) heterodimer (UniProt P01106-1;P61244-2 P01106-1:353-437,P61244-2:2-151); assay: EMSA; 30 nM each protein, 20 nM DNA; PBS pH 7.3, 1 mM EDTA, 0.1% NP40, 5% glycerol, 1 mM DTT, 0.4 mg/mL BSA; binding disrupted by 3jc48-3 (compound IC50 34.8 uM); details: tags: His6 (Myc His6-TEV tag from pET151, removed by TEV in one protocol), label: 5'-hexachlorofluorescein
Sequence of c-Myc bHLH-ZIP/Max(S) heterodimer (P01106 368-452, chain 1 of 2): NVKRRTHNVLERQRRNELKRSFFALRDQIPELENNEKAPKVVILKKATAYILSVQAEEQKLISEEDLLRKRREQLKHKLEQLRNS
Sequence of c-Myc bHLH-ZIP/Max(S) heterodimer (P61244 other isoform, or with tags, fused parts or gaps, chain 2 of 2): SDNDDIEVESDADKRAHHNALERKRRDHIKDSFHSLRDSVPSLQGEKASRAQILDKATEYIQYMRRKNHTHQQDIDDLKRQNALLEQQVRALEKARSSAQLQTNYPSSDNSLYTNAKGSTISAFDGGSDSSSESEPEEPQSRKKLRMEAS
Experimental: (§1) EMSAs. These were performed essentially as described previously (23). Briefly, Ni⁺-agarose-purified His₆-tagged c-Myc bHLH-ZIP domain (residues 353-437) was used for all binding assays as was the His₆-tagged 151 residue isoform of Max, otherwise referred to as Max(S) (residues 2-151) (21). For each binding reaction, the proteins were allowed to heterodimerize at a concentration of 30 nM each in the presence of 20 nM of a 5′-HEX-tagged double-stranded 22-base pair oligonucleotide 5′-hexachlorofluoresceine-[…]-3′ (SEQ ID NO: 1) containing a consensus c-Myc binding site (CACGTG) and the indicated concentration of small molecule inhibitor. Control reactions contained the same oligonucleotide in the presence of 60 nM of the 160 residue isoform of Max referred to as Max(L) (21). All binding reactions were prepared in a buffer consisting of PBS (pH 7.3), 1 mmol/L EDTA, 0.1% NP40, 5% glycerol, 1 mmol/L DTT, and 0.4 mg/mL bovine serum albumin. Electrophoresis was performed on 8% polyacrylamide/bisacrylamide (80:1) gels in […] (23). Each reaction was run on at least three separate occasions.

Max(L) homodimer = Max(L) homodimer (UniProt P61244 P61244:2-160); assay: EMSA; 60 nM Max(L), 20 nM DNA; same buffer; 3jc48-3 compound IC50 60.6 uM; details: tags: His6; chain copies: 2 (stated homodimer); label: 5'-hexachlorofluorescein
Sequence of Max(L) homodimer (P61244 2-160, one chain of several): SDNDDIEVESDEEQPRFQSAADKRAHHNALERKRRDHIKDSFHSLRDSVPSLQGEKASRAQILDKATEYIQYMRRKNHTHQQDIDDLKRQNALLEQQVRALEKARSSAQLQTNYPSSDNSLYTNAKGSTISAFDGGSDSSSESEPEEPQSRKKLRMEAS
Experimental: as §1

B1: E-box 22-bp HEX oligonucleotide (dsDNA)
DNA 1: CACCCGGTCACGTGGCCTACAC
DNA 2: GTGTAGGCCACGTGACCGGGTG
[1]
  binding result: binds
Max(L) homodimer
  binding result: binds
